Test results from PMC10397247.

Key:
4H233-AA = target: T1, 4H233-AA; assay: two-hybrid library CCmax;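 also: natural log of median RNA to DNA barcode read ratio; higher means stronger binding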
T1 chain: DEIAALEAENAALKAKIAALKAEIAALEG

4H2512-AA = target: T2, 4H2512-AA; assay: two-hybrid library CCmax; settings: mean of both orientations;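 also: natural log of median RNA to DNA barcode read ratio; higher means stronger binding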
T2 chain: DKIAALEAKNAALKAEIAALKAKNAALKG

4H2646-AA = target: T3, 4H2646-AA; assay: two-hybrid library CCmax; settings: mean of both orientations;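 also: natural log of median RNA to DNA barcode read ratio; higher means stronger binding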
T3 chain: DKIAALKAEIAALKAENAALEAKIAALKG

4H2687-AA = target: T4, 4H2687-AA; assay: two-hybrid library CCmax; settings: mean of both orientations;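 also: natural log of median RNA to DNA barcode read ratio; higher means stronger binding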
T4 chain: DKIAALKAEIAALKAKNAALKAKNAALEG

4H2705-AA = target: T5, 4H2705-AA; assay: two-hybrid library CCmax; settings: mean of both orientations;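 also: natural log of median RNA to DNA barcode read ratio; higher means stronger binding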
T5 chain: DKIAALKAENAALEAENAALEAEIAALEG

4H2758-AA = target: T6, 4H2758-AA; assay: two-hybrid library CCmax; settings: mean of both orientations;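 also: natural log of median RNA to DNA barcode read ratio; higher means stronger binding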
T6 chain: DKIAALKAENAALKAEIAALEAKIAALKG

4H278-AA = target: T7, 4H278-AA; assay: two-hybrid library CCmax; settings: mean of both orientations
T7 chain: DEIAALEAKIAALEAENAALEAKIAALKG

4H2873-AA = target: T8, 4H2873-AA; assay: two-hybrid library CCmax; settings: mean of both orientations
T8 chain: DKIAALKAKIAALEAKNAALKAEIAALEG

4H2985-AA = target: T9, 4H2985-AA; assay: two-hybrid library CCmax; settings: mean of both orientations
T9 chain: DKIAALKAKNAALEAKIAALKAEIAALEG

4H3134-AA = target: T10, 4H3134-AA; assay: two-hybrid library CCmax; settings: mean of both orientations
T10 chain: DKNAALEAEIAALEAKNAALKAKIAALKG

4H3409-AA = target: T11, 4H3409-AA; assay: two-hybrid library CCmax
T11 chain: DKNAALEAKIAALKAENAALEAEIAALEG

4H3595-AA = target: T12, 4H3595-AA; assay: two-hybrid library CCmax
T12 chain: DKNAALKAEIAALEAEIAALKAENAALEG

4H3625-AA = target: T13, 4H3625-AA; assay: two-hybrid library CCmax; settings: mean of both orientations
T13 chain: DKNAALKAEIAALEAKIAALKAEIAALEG

4H390-AA = target: T14, 4H390-AA; assay: two-hybrid library CCmax; settings: mean of both orientations
T14 chain: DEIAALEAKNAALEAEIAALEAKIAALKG

4H3940-AA = target: T15, 4H3940-AA; assay: two-hybrid library CCmax; settings: mean of both orientations
T15 chain: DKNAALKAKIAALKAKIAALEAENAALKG

4H510-AA = target: T16, 4H510-AA; assay: two-hybrid library CCmax; settings: mean of both orientations
T16 chain: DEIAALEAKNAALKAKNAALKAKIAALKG

4H775-AA = target: T17, 4H775-AA; assay: two-hybrid library CCmax; settings: mean of both orientations
T17 chain: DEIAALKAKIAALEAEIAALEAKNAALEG

4H816-AA = target: T18, 4H816-AA; assay: two-hybrid library CCmax; settings: mean of both orientations
T18 chain: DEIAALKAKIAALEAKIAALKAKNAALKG

4H87-AA = target: T19, 4H87-AA; assay: two-hybrid library CCmax
T19 chain: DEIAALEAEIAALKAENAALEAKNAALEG

P3mSN = target: T20, P3mSN; assay: two-hybrid library CCNG1
T20 chain: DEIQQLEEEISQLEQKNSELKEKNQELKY

P5mSN = target: T21, P5mSN; assay: two-hybrid library CCNG1
T21 chain: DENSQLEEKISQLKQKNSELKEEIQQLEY

P6mSN = target: T22, P6mSN; assay: two-hybrid library CCNG1
T22 chain: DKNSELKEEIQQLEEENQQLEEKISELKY

P7mSN = target: T23, P7mSN; assay: two-hybrid library CCNG1
T23 chain: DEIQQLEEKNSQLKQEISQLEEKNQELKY

P8mSN = target: T24, P8mSN; assay: two-hybrid library CCNG1
T24 chain: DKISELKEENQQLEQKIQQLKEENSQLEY

P9mSN = target: T25, P9mSN; assay: two-hybrid library CCNG1
T25 chain: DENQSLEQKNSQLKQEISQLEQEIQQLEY

P4mS = target: T26, P4mS; assay: two-hybrid library CC1
T26 chain: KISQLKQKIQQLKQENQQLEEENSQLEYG

P5SC1 = target: T27, P5SC1; assay: two-hybrid library CC1; settings: mean of both orientations
T27 chain: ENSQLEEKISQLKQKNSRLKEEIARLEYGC

P5SC2 = target: T28, P5SC2; assay: two-hybrid library CC1; settings: mean of both orientations
T28 chain: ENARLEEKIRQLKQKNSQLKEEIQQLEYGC

P5 = target: T29, P5; assay: two-hybrid library CC1; settings: mean of both orientations
T29 chain: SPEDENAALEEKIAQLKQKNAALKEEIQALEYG

P5mS = target: T30, P5mS; assay: two-hybrid library CC1; settings: mean of both orientations
T30 chain: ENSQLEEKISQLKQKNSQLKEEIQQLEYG

P6SC1 = target: T31, P6SC1; assay: two-hybrid library CC1; settings: mean of both orientations
T31 chain: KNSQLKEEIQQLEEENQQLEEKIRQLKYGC

P6SC2 = target: T32, P6SC2; assay: two-hybrid library CC1; settings: mean of both orientations
T32 chain: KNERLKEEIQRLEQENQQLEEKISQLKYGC

P6 = target: T33, P6; assay: two-hybrid library CC1; settings: mean of both orientations
T33 chain: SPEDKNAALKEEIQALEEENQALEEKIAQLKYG

P6mS = target: T34, P6mS; assay: two-hybrid library CC1; settings: mean of both orientations
T34 chain: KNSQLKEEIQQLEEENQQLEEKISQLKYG

P7 = target: T35, P7; assay: two-hybrid library CC1; settings: mean of both orientations
T35 chain: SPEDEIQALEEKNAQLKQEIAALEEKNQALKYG

P7mS = target: T36, P7mS; assay: two-hybrid library CC1; settings: mean of both orientations
T36 chain: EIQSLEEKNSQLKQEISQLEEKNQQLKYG

P8 = target: T37, P8; assay: two-hybrid library CC1; settings: mean of both orientations
T37 chain: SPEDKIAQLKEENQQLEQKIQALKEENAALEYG

P8mS = target: T38, P8mS; assay: two-hybrid library CC1; settings: mean of both orientations
T38 chain: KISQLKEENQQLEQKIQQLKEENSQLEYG

P9 = target: T39, P9; assay: two-hybrid library CC1; settings: mean of both orientations
T39 chain: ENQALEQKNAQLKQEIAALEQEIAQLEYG

Work on DEIAALEAENAALKAKIAALKAEIAALEG [4H233-AA] yielded an interaction score (4H233-AA) of 1.43, an interaction score (4H2512-AA) of 0.368 and an interaction score (4H2646-AA) of 1.88. The interaction score (4H2687-AA) was -1.45, the interaction score (4H2705-AA) was 1 and the interaction score (4H2758-AA) was 1.97. It also gave an interaction score (4H278-AA) of 1.7, an interaction score (4H2873-AA) of -0.478 and an interaction score (4H2985-AA) of 0.682. The interaction score (4H3134-AA) was -0.974, the interaction score (4H3409-AA) was 1.43 and the interaction score (4H3595-AA) was 0.594. For the same binder, the interaction score (4H3625-AA) was -0.183, the interaction score (4H390-AA) was 2.39 and the interaction score (4H3940-AA) was -1.57. For the same binder, the interaction score (4H510-AA) was -1.24, the interaction score (4H775-AA) was -1.43 and the interaction score (4H816-AA) was -0.563. It also gave an interaction score (4H87-AA) of -1.84.

In the case of DEIQQLEEEISQLEQKNSELKEKNQELKY [P3mSN], the interaction score (P3mSN) is reported as -0.0204, the interaction score (P5mSN) is reported as -0.781 and the interaction score (P6mSN) is reported as -0.522. It also gave an interaction score (P7mSN) of -0.239, an interaction score (P8mSN) of -0.172 and an interaction score (P9mSN) of -0.0425.

Binder KISQLKQKIQQLKQENQQLEEENSQLEYG [P4mS] has an interaction score (P4mS) of -3.22, an interaction score (P5SC1) of -2.92 and an interaction score (P5SC2) of -2.82. It also gave an interaction score (P5) of -3.02, an interaction score (P5mS) of -2.9 and an interaction score (P6SC1) of -2.65. For the same binder, the interaction score (P6SC2) was -2.64, the interaction score (P6) was -2.75 and the interaction score (P6mS) was -3. For the same binder, the interaction score (P7) was -2.78, the interaction score (P7mS) was -2.94 and the interaction score (P8) was -2.9. It also gave an interaction score (P8mS) of -2.9 and an interaction score (P9) of -2.65.
